Tests used:
[1] = biological target: DPP4/CD26 on human CD3 expressing T cells (human) (UniProt P27487); experiment: flow cytometry of human PBMCs, MERS-RBD - AF488 against CD3 - PerCP-Cy5
[2] = biological target: MERS-CoV RBD (wild type, amino acids G372-L588, AviTag, Twin Strep tag, 6xHis) (MERS-CoV); experiment: rabbit DPP4

Chain of DPP4/CD26 on human CD3 expressing T cells (human) (P27487 whole entry, the tested form may be a part): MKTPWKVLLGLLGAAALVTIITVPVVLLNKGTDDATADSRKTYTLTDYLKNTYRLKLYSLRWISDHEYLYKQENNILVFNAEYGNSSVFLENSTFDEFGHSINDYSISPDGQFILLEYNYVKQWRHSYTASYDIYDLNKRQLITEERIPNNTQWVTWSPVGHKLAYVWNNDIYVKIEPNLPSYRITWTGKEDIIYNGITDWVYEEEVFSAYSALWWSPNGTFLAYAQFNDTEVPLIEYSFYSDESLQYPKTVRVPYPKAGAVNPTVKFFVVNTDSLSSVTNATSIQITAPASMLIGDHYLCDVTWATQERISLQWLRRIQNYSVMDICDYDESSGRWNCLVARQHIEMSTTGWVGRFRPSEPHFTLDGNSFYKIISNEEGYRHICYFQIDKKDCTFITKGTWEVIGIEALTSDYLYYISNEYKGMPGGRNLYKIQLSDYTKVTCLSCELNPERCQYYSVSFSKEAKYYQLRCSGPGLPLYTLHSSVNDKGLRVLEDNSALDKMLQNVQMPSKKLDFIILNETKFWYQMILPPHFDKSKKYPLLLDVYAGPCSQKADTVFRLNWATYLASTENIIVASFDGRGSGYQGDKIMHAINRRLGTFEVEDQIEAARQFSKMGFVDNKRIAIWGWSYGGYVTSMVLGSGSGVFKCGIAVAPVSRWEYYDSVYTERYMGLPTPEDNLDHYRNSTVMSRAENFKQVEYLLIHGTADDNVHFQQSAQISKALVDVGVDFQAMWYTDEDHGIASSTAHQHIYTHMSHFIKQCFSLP

Row | Substance | CD3+ MERS-RBD+ quadrant frequency (percent of gated DAPI- lymphocytes) [1] | Kd [2]
1 | MERS-CoV RBD (wild type, amino acids G372-L588, AviTag, Twin Strep tag, 6xHis) (ligand; other documents disagree on this pair) | 4.92 | –
2 | recombinant rabbit DPP4 with a C-terminal 6xHis-tag (rbDPP4-His) (from UniProt A0A5F9CKR3 29-732) (receptor) | – | 34.3 nM

— patent US20260014245A1
